Results from the supplement of paper PMC10724198.
± gives the standard deviation of the averaged measurements.

System: Saccharomyces cerevisiae
Assay: protein stability index of tFT-peptide fusion (C-terminal peptide) (PSI (0-1 scale)); higher = more stable (slower turnover)
Conditions: genetic background: wild type; temperature: 30 C
Description: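 Multiplexed protein stability (MPS) profiling in S. cerevisiae. Random 12-aa peptides (tFT-X12 library) are fused to the C-terminus of a sfGFP-mCherry tandem fluorescent timer, after mCherry and a GGGS linker. Cells are FACS-sorted into 8 mCherry/sfGFP bins and deep-sequenced. The protein stability index (PSI) is the read-weighted bin average, scaled from 0 (unstable) to 1 (stable). Only peptides with >10 reads are reported; cells were grown at 30 °C in SC-His with glucose.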
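Further: PSI is a weighted mean of sequencing reads over stability bins, variants kept only with over 10 reads, mCherry proximal and sfGFP distal, peptide attached via GGGS linker.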

Sequence	protein stability index
GSHGRLSWHVSR	0.7008 ± 0.00074
GSLEGGGSGGGW	0.6743 ± 0.0048
GSLFLRQHTLLR	0.645 ± 0.0077
GSLRRSHYLLRA	0.588 ± 0.086
GSLVGATVSKEC	0.63 ± 0.083
GSLWGAFFRGLL	0.688 ± 0.04
GSLWGGFFRGLL	0.70105 ± 0.00018
GSMCYRTVTNLR	0.593 ± 0.017
GSMVWVRCGLER	0.634 ± 0.022
GSNPYNRHLINI	0.693 ± 0.02
GSPALGSCSWSR	0.627 ± 0.057
GSPCPIVLICGL	0.504 ± 0.034
GSQHSPRPFFFQ	0.72 ± 0.038
GSQLFESVVVRV	0.679 ± 0.061
GSQPSQRRSSGA	0.679 ± 0.014
GSRAWERSERVR	0.649 ± 0.084
GSRIVCFWSGAG	0.717 ± 0.011
GSRLIGGFIVVG	0.6365 ± 0.0021
GSRPPPRPLFPS	0.697 ± 0.048
GSSAVGWGGVWW	0.796 ± 0.11
GSSGPCRSHVLG	0.694 ± 0.02
GSSYDSEISRQS	0.732 ± 0.0089
GSTSLILSMSPA	0.693 ± 0.027
GSVCVGGFGFFG	0.657 ± 0.039
GSVLPPPSSPPL	0.704 ± 0.013

Sequence	protein stability index
GSWDEFGVYSRV	0.6126 ± 0.0058
GTALERMWLEIE	0.7387 ± 0.0024
GTLGRMVTPAAW	0.6358 ± 0.0039
GTPHSKGVGFDH	0.655 ± 0.048
GTRQWPARSDVV	0.692 ± 0.031
GTVEDVLIFYEP	0.691 ± 0.1
GTVLSVARGWCV	0.692 ± 0.11
GTWSVYSEKFVG	0.652 ± 0.0081
GVAGRRGQRDVR	0.746 ± 0.088
GVARSMAGWARC	0.703 ± 0.035
GVDCPGPKRDRK	0.626 ± 0.011
GVESRSCCVFWG	0.72 ± 0.012
GVFIGWAGYKGT	0.661 ± 0.027
GVFVVEWSGGEG	0.586 ± 0.064
GVGCVGWGSSCA	0.673 ± 0.093
GVGGGRVLLLRL	0.614 ± 0.042
GVGGGWVGCGVI	0.764 ± 0.06
GVGGVLLCCCIV	0.573 ± 0.35
GVGMWCSRLRVG	0.5952 ± 0.00044
GVGRGGSSRWLG	0.646 ± 0.06
GVGSVQRCGGGG	0.6771 ± 0.0035
GVGVWVVLGRAG	0.644 ± 0.031
GVGVWWRGVIMG	0.615 ± 0.0095
GVIFPQFDPCAL	0.788 ± 0.056
GVKSSRRSLHGS	0.738 ± 0.037

Sequence	protein stability index
GVLGGGVFGGSV	0.631 ± 0.077
GVLIDVFGRSAV	0.696 ± 0.029
GVLLGSKFCQQL	0.641 ± 0.093
GVLPRPPPTEGT	0.722 ± 0.041
GVLQEYIGKKQK	0.723 ± 0.043
GVLQYPPCTYPH	0.675 ± 0.0078
GVLSLFGFNTVV	0.71 ± 0.16
GVMTGGPPGGAG	0.642 ± 0.04
GVPRNSCHYPYG	0.6462 ± 0.0049
GVPVGVDSFHGV	0.66848 ± 4.1e-05
GVRAVRSCRMQR	0.702 ± 0.072
GVRCCGLCGVGV	0.615 ± 0.0088
GVRGKDCMGGGM	0.613 ± 0.063
GVRLRNLTIITI	0.697 ± 0.037
GVRRVVKGTKGC	0.662 ± 0.013
GVSCIAEGRGGL	0.668 ± 0.025
GVSCIAEGRGGW	0.7143 ± 0.00091
GVSWMRAGFEFM	0.779 ± 0.021
GVSWSWRGCCRR	0.7109 ± 0.0058
GVVGVQTLIISN	0.653 ± 0.043
GVVGWWWVRGMG	0.756 ± 0.023
GVVIGGAGYKGT	0.633 ± 0.058
GVVSSSIFDLWS	0.746 ± 0.12
GVVVIVKYKMGV	0.579 ± 0.031
GVWLWVLGACRR	0.657 ± 0.057

Sequence	protein stability index
GVWVRGTRRGWG	0.741 ± 0.2
GVYRGNNGSPVK	0.689 ± 0.0086
GWAIKGPFTLRS	0.663 ± 0.044
GWARQAADGWGG	0.709 ± 0.089
GWCGGAIIRAWD	0.678 ± 0.039
GWDRNVGWVVGR	0.735 ± 0.044
GWESCLGVTRSV	0.69 ± 0.018
GWEYMDERVNQS	0.74 ± 0.013
GWGGGEGVEGEP	0.678 ± 0.048
GWGGGGGGGAGG	0.665 ± 0.057
GWGGGGGGRGWG	0.71 ± 0.055
GWGSGSYRRRAV	0.695 ± 0.055
GWMGGFLVMSID	0.686 ± 0.037
GWNRVGDWGVCG	0.736 ± 0.01
GWRAGGTGAPSR	0.653 ± 0.041
GWRHFVLFWCGL	0.752 ± 0.022
GWSCGGVGGGLG	0.71 ± 0.04
GWSVWFGLGGVW	0.689 ± 0.022
GWTVCVFGSCGV	0.692 ± 0.051
GWWVVTLRSGLR	0.651 ± 0.09
GYCLGVGLRLLH	0.562 ± 0.018
GYRMEGRVDSGG	0.6495 ± 0.004
GYTRYYRLLQSR	0.642 ± 0.028
